The nature of data set [1]: Particle size and stability by dynamic light scattering. The class given is physicochemical. Conditions: Table 3; peptide-based linear C-B-H; PBS pH 7.4, 0.5 mg/mL. How it is done:
To evaluate particle size and stability, 10 μL of the resulting mixture was diluted with 190 μL PBS, pH 7.4 and the resulting solution was evaluated for turbidity and by dynamic light scattering (DLS).
This reaction scheme was used to prepare different compositions of amphiphilic block copolymers that were characterized for the capacity to form stable nanoparticle micelles in aqueous buffer, PBS pH 7.4, at a concentration of 0.5 mg/mL of amphiphilic block copolymer.
A series of linear amphiphilic block copolymers of formula C-B-H, wherein the charged molecule (C) and spacer (B) comprises peptides, i.e., poly(lysine) and poly(serine-co-glycine), respectively, with varying hydrophobic polymer composition were evaluated for particle size and stability by dynamic light scattering.

Assay in data set [2]: as above
The settings on record: Table 2; S-[B]-H particles. The data set is classed as physicochemical.

Data set [3] deals with MC38 tumor cells. The data set is described as follows: Regression of established MC38 tumors after intratumoral treatment. The data set is classed as in vivo, C57BL/6 mice. Conditions: intratumoral days 11 and 17, 10 and 50 nmol. On the procedure: Tumors were measured by digital callipers for the longest dimension (‘length’) and the distance perpendicular to the length (‘width’), and volume estimated by the formula: <volume=width×width×length/2>. Data are reported as mean±s.e.m in FIGS. 3-5. Tumor regression is noted as soon as 1 day following 50 nmol dose of each S-B-H carrier of TLR-7/8a.

Square brackets hold non-standard residues; d marks the D form. Ends that are not written are not given here. N3‑DBCO = triazole linker from reaction of an azide with DBCO; Lys(N3) = [N-]=[N+]=NCCCC[C@H](N)C(=O)O; Phe(4-NH2) = Nc1ccc(C[C@H](N)C(=O)O)cc1

Take “KKK-SGSGSGSGSGSGSGSGSGSGSGSG-(Lys(N3-DBCO))-Ahx-(F′)5: peptide-based linear amphiphilic block copolymer (KKKSGSGSGSGSGSGSGSGSGSGSGSGK[Phe(4-NH2)][Phe(4-NH2)][Phe(4-NH2)][Phe(4-NH2)][Phe(4-NH2)]; not fully specified (residue 28); printed as KKK-SGSGSGSGSGSGSGSGSGSGSGSG-(Lys(N3-DBCO))-Ahx-(F′)5; also: Lys joined to F′ block via N3-DBCO-Ahx linkage)”: in data set [1], the “Size (diameter, nm)” value was determined as 1013 nm. In the case of “EEEEE-(N3-DBCO)-WWWWW (EEEEE[N3‑DBCO]WWWWW) [Compound 23]”, the “Particle size (Diameter, nm)” value in data set [2] was 54.09 nm. Take “K7(SG)12×—(N3-DBCO)-Ahx-(F′)20 [Compound 84]”: in data set [3] (FIG. 4, nanoparticles associated with 2BXy (1 to 4 molar ratio) or covalently linked to 2BXy), the “Regression of established tumors” value was “promote regression of established tumors”. For the substance “KKK-SLVRX-(N3-DBCO)-WWWWW (KKKSLVR[Lys(N3)]WWWWW; not fully specified (residue 8); printed as KKK-SLVRX-(N3-DBCO)-WWWWW; also: azidolysine joined to Trp block via N3-DBCO linkage) [Compound 22]”, in data set [2], the “Particle size (Diameter, nm)” value was 64.73 nm.

For “KKK-SGSGSGSGSGSGSGSGSGSGSGSG-(Lys(N3-DBCO))-Ahx-(F′)10: peptide-based linear amphiphilic block copolymer (KKKSGSGSGSGSGSGSGSGSGSGSGSGK[Phe(4-NH2)][Phe(4-NH2)][Phe(4-NH2)][Phe(4-NH2)][Phe(4-NH2)][Phe(4-NH2)][Phe(4-NH2)][Phe(4-NH2)][Phe(4-NH2)][Phe(4-NH2)]; not fully specified (residue 28); printed as KKK-SGSGSGSGSGSGSGSGSGSGSGSG-(Lys(N3-DBCO))-Ahx-(F′)10; also: Lys joined to F′ block via N3-DBCO-Ahx linkage)”, the “Size (diameter, nm)” value in data set [1] was found to be 3839 nm. On the same count and under the same terms, to “KKKKKKK-SGSGSGSGSGSGSGSGSGSGSGSG-(Lys(N3-DBCO))-Ahx-(F′)5: peptide-based linear amphiphilic block copolymer (KKKKKKKSGSGSGSGSGSGSGSGSGSGSGSGK[Phe(4-NH2)][Phe(4-NH2)][Phe(4-NH2)][Phe(4-NH2)][Phe(4-NH2)]; not fully specified (residue 32); printed as KKKKKKK-SGSGSGSGSGSGSGSGSGSGSGSG-(Lys(N3-DBCO))-Ahx-(F′)5; also: Lys joined to F′ block via N3-DBCO-Ahx linkage)” belongs 477 nm. As for “{OH-PEG24}4-{propargyl}4K2K{Lys(N3)}-DBCO-Ahx-(F′)10 [Compound 80]”, the “Regression of established tumors” value in data set [3] (FIG. 5, nanoparticles admixed with 2BXy and Doxorubicin at 1 to 4 to 4 molar ratio) is recorded as “promote regression of established tumors”.

In the case of “KKKKKKK-SGSGSGSGSGSGSGSGSGSGSGSG-(Lys(N3-DBCO))-Ahx-(F′)20: peptide-based linear amphiphilic block copolymer (KKKKKKKSGSGSGSGSGSGSGSGSGSGSGSGK[Phe(4-NH2)][Phe(4-NH2)][Phe(4-NH2)][Phe(4-NH2)][Phe(4-NH2)][Phe(4-NH2)][Phe(4-NH2)][Phe(4-NH2)][Phe(4-NH2)][Phe(4-NH2)][Phe(4-NH2)][Phe(4-NH2)][Phe(4-NH2)][Phe(4-NH2)][Phe(4-NH2)][Phe(4-NH2)][Phe(4-NH2)][Phe(4-NH2)][Phe(4-NH2)][Phe(4-NH2)]; not fully specified (residue 32); also: Lys joined to F′ block via N3-DBCO-Ahx linkage)”, in data set [1], the “Size (diameter, nm)” value is listed as 32 nm.

(Values after US20210393523A1, “AROMATIC RING SUBSTITUTED AMPHIPHILIC POLYMERS AS DRUG DELIVERY SYSTEMS” (Avldea Technologies, Inc., priority 2018, published 2021).)
